Experimental data published in US20220177587A1, “METHODS AND USES OF VARIANT CD80 FUSION PROTEINS AND RELATED CONSTRUCTS” (Alpine Immune Sciences, Inc., priority 2018, published 2022).
Substitutions are numbered along the chain they refer to. Names and notes keep the numbering of the source. Each block holds one molecule with its values, some of them ahead of it.

How the values were obtained:
CD28 [1] = target: T1, CD28 (Homo sapiens, UniProt P10747); test: Jurkat/IL2 + CHO/OKT3 +/- PD-L1 reporter assay: PD-L1-dependent CD28 costimulation; format: cell-based; design: host or cells: Jurkat cells expressing an IL-2-luciferase reporter; conditions: 5.0 nM
In short: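 Readout is relative luminescence from lysed cocultures: test protein given 15 min at room temperature to Jurkat cells before adding CHO artificial APCs displaying OKT3 alone or OKT3 plus PD-L1, then 5 h at 37 °C, 5% CO2.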

CD28 [2] = target: T1, CD28; test: Flow binding to Jurkat/IL2 reporter cells (CD28); design: host or cells: Jurkat cells expressing an IL-2-luciferase reporter
In short: (§1)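 Binding EC50 and PE mean fluorescence intensity derived by flow cytometry using PE-labelled anti-human Fc secondary. Target cells were CTLA4- or PD-L1-transfected CHO lines and CD28-expressing Jurkat/IL2 reporter cells, stained with fusion proteins on ice for 45 min following BSA blocking.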

huCTLA4 = huCTLA4 (Homo sapiens, UniProt P16410); test: Flow binding to CHO cells stably expressing CTLA4; design: huCTLA4 and huPD-L1, full-length mammalian surface expression constructs were generated; expressed in transfected cells; host or cells: CHO cells, lentiviral transduction, sorted to >98% purity; conditions: for CTLA4 MFI at 33.3 nM: CHO cells stably expressing CTLA4
Sequence of huCTLA4 (P16410 36-223): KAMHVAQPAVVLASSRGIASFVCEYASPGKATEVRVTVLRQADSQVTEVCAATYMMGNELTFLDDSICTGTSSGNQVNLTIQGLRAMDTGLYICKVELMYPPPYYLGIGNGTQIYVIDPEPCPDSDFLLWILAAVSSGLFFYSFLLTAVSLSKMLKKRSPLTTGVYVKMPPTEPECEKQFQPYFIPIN
In short: as §1

huPD-L1 = huPD-L1 (Homo sapiens, UniProt Q9NZQ7); test: Flow binding to CHO cells stably expressing PD-L1; design: huCTLA4 and huPD-L1, full-length mammalian surface expression constructs were generated; expressed in transfected cells; host or cells: CHO cells, lentiviral transduction, sorted to >98% purity; conditions: for PD-L1 MFI at 33.3 nM: CHO cells stably expressing PD-L1; for Ratio of PDL1:CD28: ratio of MFI at 33.3 nM
Sequence of huPD-L1 (Q9NZQ7 19-290): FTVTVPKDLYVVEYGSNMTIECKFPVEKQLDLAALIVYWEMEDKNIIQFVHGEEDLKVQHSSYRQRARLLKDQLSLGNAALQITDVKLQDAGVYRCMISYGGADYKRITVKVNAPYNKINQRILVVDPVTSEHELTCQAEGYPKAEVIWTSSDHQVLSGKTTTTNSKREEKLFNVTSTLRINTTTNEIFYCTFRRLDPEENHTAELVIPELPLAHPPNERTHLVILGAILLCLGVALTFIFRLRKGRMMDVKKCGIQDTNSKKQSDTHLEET
In short: as §1

human pan T cells = test: Anti-CD3 coimmobilization assay, IFN-gamma; format: cell-based; conditions: Table E34; culture supernatant, 3 days
Experimental: Costimulatory bioactivity of CD80 fusion variants was determined in anti-CD3 coimmobilization assays. 1 nM or 4 nM mouse anti-human CD3 (OKT3, Biolegends, USA) was diluted in PBS with 1 nM to 80 nM rCD80.Fc variant proteins. This mixture was added to tissue culture treated flat bottom 96-well plates (Corning, USA) overnight to facilitate adherence of the stimulatory proteins to the wells of the plate. The next day, unbound protein was washed off the plates and 100,000 purified human pan T cells (BenTech Bio, US) or human T cell clone BC3 (Astarte Biologics, USA) were added to each well in a final volume of 200 μl of Ex-Vivo 15 media (Lonza, Switzerland). Cells were cultured 3 days before harvesting culture supernatants and measuring human IFN-gamma levels with Duoset ELISA kit (R&D Systems, USA) as described above.

[3] = Table E24, Jurkat/IL2 + CHO/OKT3/PD-L1
[4] = Table E23, CD80 IgV-Fc (inert) at 33.3 nM, Jurkat (CD28)
[5] = Table E23, MFI at 33.3 nM relative to CD80 WT IgV-Fc
[6] = Table E23, CD80 IgV-Fc (inert) at 33.3 nM
[7] = Table E26, linker variants, Jurkat/IL2 + CHO/OKT3/PD-L1
[8] = Table E25, linker variants, 33.3 nM, Jurkats (CD28)
[9] = Table E25, linker variants, relative to CD80 WT IgV-Fc
[10] = Table E25, linker variants, 33.3 nM

B3: H18F/A26N/E35D/M47V/V68M/A71G/D90K (protein, UniProt P33681 35-288, looked up, variant H18F A26N E35D M47V V68M A71G D90K)
T-lymphocyte activation …: VIHVTKEVKEVATLSCGFNVSVEELNQTRIYWQKDKKMVLTMMSGDVNIWPEYKNRTIFDITNNLSIMILGLRPSDEGTYECVVLKYEKKAFKREHLAEVTLSVKADFPTPSISDFEIPTSNIRRIICSTSGGFPEPHLSWLENGEELNAINTTVSQDPETELYAVSSKLDFNMTTNHSFMCLIKYGHLRVNQTFNWNTTKQEHFPDNLLPSWAITLISVNGIFVICCLTYCFAPRCRERRRNERLRRESVRPV
- Fold Increase over WT CD80-IgV-Fe (CD28 [1]; [3]): 5.4
- Relative Luciferase Units (RLU), CD80 Conc 5.0 nM (CD28 [1]; [3]): 919 RLU
- CD28 MFI at 33.3 nM (CD28 [2]; [4]): 3170
- CD28 Fold change to WT CD80 (CD28 [2]; [5]): 31.1
- CTLA4 MFI at 33.3 nM (huCTLA4; [6]): 15206
- CTLA4 Fold change to WT CD80 (huCTLA4; [5]): 11.0
- PD-L1 MFI at 33.3 nM (huPD-L1; [6]): 22395
- PD-L1 Fold change to WT CD80 (huPD-L1; [5]): 135.7
- Ratio of PDL1:CD28 (huPD-L1; Table E23): 7.1

B7: H18L, R29D, Y31L, Q33H, K36G, M38I, T41A, M43R, M47T, E81V, L85R, K89N, A91T, F92P, K93V, R94L, E99D, T130A (protein)
chain: VIHVTKEVKEVATLSCGLNVSVEELAQTDILWHKEGKIVLAMRSGDTNIWPEYKNRTIFDITNNLSIVILALRPSDEGTYVCVVRKYENDTPVLEHLADVTLSVKADFPTPSISDFEIPTSNIRRIICSASGGFPEPHLSWLENGEELNAINTTVSQDPETELYAVSSKLDFNMTTNHSFMCLIKYGHLRVNQTFNWNTTKQEHFPDN
- Anti-CD3 IFN-gamma Coimmobilization Assay (human pan T cells): 174 pg/mL

B8: R29D, Y31L, Q33H, K36G, M38I, T41A, M43R, M47T, L70Q, E81V, L85R, K89N, A91T, F92P, K93I, R94L, L97R, T130A (protein)
chain: B7 chain with L18H, L70Q, V93I, L97R, D99E
- Anti-CD3 IFN-gamma Coimmobilization Assay (human pan T cells): 202 pg/mL

B9: R29D, Y31L, Q33H, K36G, M38I, T41A, M43R, M47T, L70Q, E81V, L85R, K89N, A91T, F92P, K93I, R94L, L97R, T130A, L148S (protein)
chain: B7 chain with L18H, L70Q, V93I, L97R, D99E, L148S
- Anti-CD3 IFN-gamma Coimmobilization Assay (human pan T cells): 101 pg/mL

B10: R29D, Y31L, Q33H, K36G, M38I, T41A, M43R, M47T, I61N, E81V, L85R, K89N, A91T, F92P, K93V, R94F, V104A, I118V, T120S, I126V, T130A (protein)
chain: B7 chain with L18H, I61N, L94F, D99E, V104A, I118V, T120S, I126V
- Anti-CD3 IFN-gamma Coimmobilization Assay (human pan T cells): 288 pg/mL

B11: R29D, Y31L, Q33H, K36G, M38I, T41A, M43R, M47T, E81V, L85R, K89N, A91T, F92P, K93V, R94F, I118V, T120S, T130A (protein)
chain: B7 chain with L18H, L94F, D99E, I118V, T120S
- Anti-CD3 IFN-gamma Coimmobilization Assay (human pan T cells): 111 pg/mL

B12: H18L, R29D, Y31L, Q33H, K36G, M38I, T41A, M43R, M47T, L70Q, E81V, L85R, K89N, A91T, F92P, K93V, R94L, I118V, T120S, T130A, K169E (protein)
chain: B7 chain with L70Q, D99E, I118V, T120S, K169E
- Anti-CD3 IFN-gamma Coimmobilization Assay (human pan T cells): 232 pg/mL

Further lines, results first:

- Fold Increase over WT CD80-IgV-Fe (CD28 [1]; [3]): 4.6
- Relative Luciferase Units (RLU), CD80 Conc 5.0 nM (CD28 [1]; [3]): 795 RLU
- CD28 MFI at 33.3 nM (CD28 [2]; [4]): 3126
- CD28 Fold change to WT CD80 (CD28 [2]; [5]): 30.6
- CTLA4 MFI at 33.3 nM (huCTLA4; [6]): 17654
- CTLA4 Fold change to WT CD80 (huCTLA4; [5]): 12.8
- PD-L1 MFI at 33.3 nM (huPD-L1; [6]): 33597
- PD-L1 Fold change to WT CD80 (huPD-L1; [5]): 203.6
- Ratio of PDL1:CD28 (huPD-L1; Table E23): 10.7
B1: H18V/A26Q/E35D/M47V/V68L/A71G/D90G (protein, UniProt P33681 35-288, looked up, variant H18V A26Q E35D M47V V68L A71G D90G)
T-lymphocyte activation …: B3 T-lymphocyte activation … with F18V, N26Q, M68L, K90G

- Fold Increase over WT CD80-IgV-Fe (CD28 [1]; Table E26, linker variants): 4.38
- Relative Luciferase Units (RLU), CD80 Conc 5.0 nM (CD28 [1]; [7]): 1707 RLU
- CD28 MFI at 33.3 nM (CD28 [2]; [8]): 2634
- CD28 Fold change to WT CD80 (CD28 [2]; [9]): 47.1
- CTLA4 MFI at 33.3 nM (huCTLA4; [10]): 27516
- CTLA4 Fold change to WT CD80 (huCTLA4; [9]): 23.0
- PD-L1 MFI at 33.3 nM (huPD-L1; [10]): 22862
- Ratio of PDL1:CD28 (huPD-L1; Table E25, linker variants): 9
- PD-L1 Fold change to WT CD80 (huPD-L1; [9]): 490.6
B2: E35D/M47V/N48K/V68M/K89N EAAAK (protein, UniProt P33681 35-288, looked up, variant E35D M47V N48K V68M K89N)
T-lymphocyte activation …: B3 T-lymphocyte activation … with F18H, N26A, N48K, G71A, K89N, K90D
modifications: EAAAK linker

- Fold Increase over WT CD80-IgV-Fe (CD28 [1]; Table E26, linker variants): 5.25
- Relative Luciferase Units (RLU), CD80 Conc 5.0 nM (CD28 [1]; [7]): 2046 RLU
- CD28 MFI at 33.3 nM (CD28 [2]; [8]): 197
- CD28 Fold change to WT CD80 (CD28 [2]; [9]): 3.5
- CTLA4 MFI at 33.3 nM (huCTLA4; [10]): 32048
- CTLA4 Fold change to WT CD80 (huCTLA4; [9]): 26.8
- PD-L1 MFI at 33.3 nM (huPD-L1; [10]): 25461
- Ratio of PDL1:CD28 (huPD-L1; Table E25, linker variants): 129
- PD-L1 Fold change to WT CD80 (huPD-L1; [9]): 546.4
B4: E35D/D46V/M47L/V68M/L85Q/E88D (EAAAK)3 (protein, UniProt P33681 35-288, looked up, variant E35D D46V M47L V68M L85Q E88D)
T-lymphocyte activation …: B3 T-lymphocyte activation … with F18H, N26A, D46V, V47L, G71A, L85Q, E88D, K90D
modifications: (EAAAK)3 linker

- Fold Increase over WT CD80-IgV-Fe (CD28 [1]; Table E26, linker variants): 2.63
- Relative Luciferase Units (RLU), CD80 Conc 5.0 nM (CD28 [1]; [7]): 1026 RLU
- CD28 MFI at 33.3 nM (CD28 [2]; [8]): 4678
- CTLA4 MFI at 33.3 nM (huCTLA4; [10]): 3091
- PD-L1 MFI at 33.3 nM (huPD-L1; [10]): 20442
- Ratio of PDL1:CD28 (huPD-L1; Table E25, linker variants): 4
B5: E35D/M47V/N48K/V68M/K89N delta (protein)
chain: VIHVTKEVKEVATLSCGHNVSVEELAQTRIYWQKDKKMVLTMMSGDVKIWPEYKNRTIFDITNNLSIMILALRPSDEGTYECVVLKYENDAFKREHLAEVTLSVKTHTCPPCPAPEAEGAPSVFLFPPKPKDTLMISRTPEVTCVVVDVSHEDPEVKFNWYVDGVEVHNAKTKPREEQYNSTYRVVSVLTVLHQDWLNGKEYKCKVSNKALPAPIEKTISKAKGQPREPQVYTLPPSREEMTKNQVSLTCLVKGFYPSDIAVEWESNGQPENNYKTTPPVLDSDGSFFLYSKLTVDKSRWQQGNVFSCSVMHEALHNHYTQKSLSLSPG

- Fold Increase over WT CD80-IgV-Fe (CD28 [1]; Table E26, linker variants): 2.77
- Relative Luciferase Units (RLU), CD80 Conc 5.0 nM (CD28 [1]; [7]): 1079 RLU
- CD28 MFI at 33.3 nM (CD28 [2]; [8]): 4173
- CTLA4 MFI at 33.3 nM (huCTLA4; [10]): 12177
- PD-L1 MFI at 33.3 nM (huPD-L1; [10]): 22538
- Ratio of PDL1:CD28 (huPD-L1; Table E25, linker variants): 5
B6: E35D/D46V/M47L/V68M/L85Q/E88D delta (protein)
chain: B5 chain with D46V, V47L, K48N, L85Q, E88D, N89K
